From patent US20100196361A1, “Method of inhibition of vascular development using an antibody” (DYAX CORP., priority 2003, published 2010)

T1: Tie1-EpoR chimeric receptor (UniProt P14753+P35590)
T1 construct: PCR amplified extracellular part of human Tie1 (bp 37-2316 of X60975); expressed in transfected cells
T1 sequence (P35590+P14753 with tags, fused parts or gaps): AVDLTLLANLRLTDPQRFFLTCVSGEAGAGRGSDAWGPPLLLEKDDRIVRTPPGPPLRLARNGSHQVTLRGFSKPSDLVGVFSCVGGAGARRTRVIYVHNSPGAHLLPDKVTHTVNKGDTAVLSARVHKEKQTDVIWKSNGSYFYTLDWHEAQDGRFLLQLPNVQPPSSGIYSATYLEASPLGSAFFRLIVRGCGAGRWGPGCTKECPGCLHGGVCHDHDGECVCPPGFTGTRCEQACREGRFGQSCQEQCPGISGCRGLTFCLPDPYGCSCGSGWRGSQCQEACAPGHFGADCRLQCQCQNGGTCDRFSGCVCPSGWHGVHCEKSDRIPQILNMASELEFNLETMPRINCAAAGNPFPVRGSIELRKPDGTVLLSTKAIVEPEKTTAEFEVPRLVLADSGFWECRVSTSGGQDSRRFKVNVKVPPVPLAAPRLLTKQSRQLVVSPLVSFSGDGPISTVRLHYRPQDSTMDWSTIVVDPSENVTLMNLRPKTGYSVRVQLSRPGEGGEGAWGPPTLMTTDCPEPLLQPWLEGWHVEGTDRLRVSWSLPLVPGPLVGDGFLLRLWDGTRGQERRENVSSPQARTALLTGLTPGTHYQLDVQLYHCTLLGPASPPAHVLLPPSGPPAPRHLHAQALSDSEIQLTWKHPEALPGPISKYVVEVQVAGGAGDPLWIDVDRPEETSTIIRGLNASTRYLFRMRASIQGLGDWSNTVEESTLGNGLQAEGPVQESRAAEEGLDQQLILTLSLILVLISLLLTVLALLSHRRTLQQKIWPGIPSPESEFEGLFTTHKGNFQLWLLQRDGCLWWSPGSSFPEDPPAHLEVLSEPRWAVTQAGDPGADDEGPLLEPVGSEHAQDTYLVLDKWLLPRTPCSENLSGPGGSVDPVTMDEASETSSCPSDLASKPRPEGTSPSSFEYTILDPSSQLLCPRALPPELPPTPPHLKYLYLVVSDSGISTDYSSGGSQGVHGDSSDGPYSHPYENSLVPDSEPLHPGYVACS

B1: E3: human anti-Tie1 antibody from phage Fab library, reformatted as IgG; HC variable SEQ ID NO:114, LC variable SEQ ID NO:116 (antibody, V domains shown)
VH: EVQLLESGGGLVQPGGSLRLSCAASGFTFSMYGMVWVRQAPGKGLEWVSVISPSGGNTGYADSVKGRFTISRDNSKNTLYLQVNSLRAEDTAVYYCARAPRGYSYGYYYWGQGTLVTVSSASTKGPSVFPLAPSSKSTSGG
VL: DIQMTQSPLSLSASVGDRVTITCRASQGIGHYLAWYQQKPGKVPKLLIYTASTLQSGVPSRFSGSGSGTDFTLTINSLQPEDVATYYCQQFNSYPHTFGQGTRLDIK
modifications: IgG constant regions; Synthetically generated peptide
B2: parental E3 Fab: soluble Fab fragment of the parental E3 anti-Tie1 antibody (antibody, V domains shown)
VH: B1 VH
VL: B1 VL

Molecular target: T1, Tie1-EpoR chimeric receptor
Experiment: BaF3 bioassay (Tie1/EpoR chimeric BaF3 cell assay)
Assay type: cell-based, human
Conditions: for survival (viability) of Tie1-EpoR BaF3 cells: no IL-3, MTT
From the text: BaF3 bioassay. To generate Tie1-EpoR expressing BaF3 cells for the bioassay, BaF3 pre-B cells were stably transfected with a nucleic acid that expresses chimeric receptor containing the extracellular domain of human Tie1 fused with the transmembrane and cytoplasmic domains of the mouse erythropoietin receptor. The nucleic acid used was a Tie1-EpoR chimeric cDNA in a pEF-BOS expression vector. The nucleic acid encoding the chimeric receptor was constructed by cloning the PCR amplified extracellular part of human Tie1 (bp 37-2316 of X60975) as EcoRI-BglII fragment into mEpoR-pcDNA vector. The cDNA encoding for the chimeric receptor consisting of the extracellular part of Tie1 fused with the transmembrane and intracellular domains of EpoR was subcloned into the pEF-BOS expression vector. Vector was linearized and co-transfected into BaF3 cells with pcDNA3.1(+) Zeo vector (Invitrogen). Stable cell pools were generated by selection with 250 μg/ml Zeocin. The expression of Tie1/EpoR fusion protein in several clones was analyzed by Western blotting with an antibody against EpoR.
To perform the assays, BaF3 cells expressing the Tie1-EpoR chimera were split in 96-well microtiter plates at 50 000 cells/well in the presence of the indicated concentrations of anti-Tie1 antibodies. The E3 antibody used in this study was the germ-lined E3 antibody (DX-2220). As controls, Zeocin resistant pools not expressing the Tie1-EpoR were used. After 48 h, the viability of the cells was determined by adding MTT (3-(4,5-dimethylthiazol-2-yl)-2,5-diphenyl tetrazolium bromide (Sigma), 0.5 mg/ml), followed by further 2 h of culture, addition of an equal volume of cell lysis solution (10% SDS, 10 mM HCl) and incubation overnight at 37° C. Absorbance was measured at 540 nm.
Stimulation and inhibition of Tie1 in Tie1-EpoR transfected BaF3 cells and human primary endothelial cells. Although no ligand for Tie1 has been identified, we used the following efficient screening method for Tie1-binding proteins. Interleukin-3 dependent pre-B-lymphocyte (BaF3) cells were transfected with a construct that expresses a Tie1-EpoR fusion protein. Since BaF3 cells are IL-3 dependent, they die unless IL-3 is provided. However, Tie-EpoR receptor expressing BaF3 cells can survive and proliferate if the medium contains a Tie1-binding protein, either a natural ligand or an artificial mimetic. Cell survival can be quantitated, e.g., by colorimetric MTT-assay, which measures mitochondrial activity.
To determine if any of the other monoclonal antibodies tested inhibit the survival effect of E3 IgG in Tie1-EpoR BaF3 assay, antibodies were studied in combination with E3 IgG. A concentration of 100 ng/ml of E3 IgG together with 100 (1:1) or 500 (1:5) ng/ml of the other antibodies were used and the viability of Tie1-EpoR cells was measured.

Molecule | viability of EpoR BaF3 cells used as a control (cells not expressing Tie1-EpoR) | survival (viability) of Tie1-EpoR BaF3 cells | survival (viability) of Tie1-EpoR BaF3 cells (listed as E3 IgG) | concentration giving almost maximal viability in Tie1-EpoR cell survival assays (viability dose dependent) [ng/mL]
B1 | not affected | functions as a Tie1 activating antibody in the BaF3 cell bioassay | able to promote survival of Tie1-EpoR cells | 50
B2 |  | no effect on the viability of Tie1-EpoR cells |  | 
